Laboratory results from paper PMC12676778, “Long-tailed class I myosins rely on tail-mediated phosphoinositide recognition for specific membrane recruitment” (Cell Communication and Signaling : CCS, 2025).

Tests used:
Conditions in all cases: both partners purified
microtubules = microtubules (UniProt P02550 1-451, alpha/beta-tubulin heterodimer polymerised into paclitaxel-stabilised microtubules, GTP in the buffer. Source and isotypes not given); porcine brain tubulin (a natural isotype mixture with native mod); experiment: co-sedimentation; YFP fluorescence of pellet and supernatant; 100 mM PIPES pH 6.8, 2 mM MgCl2, 1 mM EGTA, 20 µM paclitaxel, 1 mM GTP; 20,000 g, 30 min, 30 °C; hyperbolic fit
F-actin [1] = target: T1, F-actin (UniProt P68135 1-377); experiment: co-sedimentation; YFP fluorescence of pellet and supernatant; increasing F-actin concentrations; 5 mM Tris pH 7.4, 100 mM KCl, 0.04% NaN3, 2 mM MgCl2; 20,000 g, 30 min, 4 °C
F-actin [2] = target: T1, F-actin; experiment: as above; remark: listed apart in the source

Chain of microtubules (P02550 whole entry, chain 1 of 2): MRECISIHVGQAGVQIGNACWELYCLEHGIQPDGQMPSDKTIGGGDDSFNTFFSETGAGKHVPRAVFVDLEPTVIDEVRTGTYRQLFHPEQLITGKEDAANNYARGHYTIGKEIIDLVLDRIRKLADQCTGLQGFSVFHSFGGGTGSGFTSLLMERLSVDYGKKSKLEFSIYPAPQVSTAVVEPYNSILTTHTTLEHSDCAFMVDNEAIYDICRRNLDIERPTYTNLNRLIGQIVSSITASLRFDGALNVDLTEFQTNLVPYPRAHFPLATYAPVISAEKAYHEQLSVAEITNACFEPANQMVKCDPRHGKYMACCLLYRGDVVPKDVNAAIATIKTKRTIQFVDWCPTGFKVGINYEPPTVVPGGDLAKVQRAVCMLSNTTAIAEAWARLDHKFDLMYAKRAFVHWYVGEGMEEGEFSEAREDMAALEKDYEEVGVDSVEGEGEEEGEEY
Chain of microtubules (P02554 whole entry, chain 2 of 2, further chain): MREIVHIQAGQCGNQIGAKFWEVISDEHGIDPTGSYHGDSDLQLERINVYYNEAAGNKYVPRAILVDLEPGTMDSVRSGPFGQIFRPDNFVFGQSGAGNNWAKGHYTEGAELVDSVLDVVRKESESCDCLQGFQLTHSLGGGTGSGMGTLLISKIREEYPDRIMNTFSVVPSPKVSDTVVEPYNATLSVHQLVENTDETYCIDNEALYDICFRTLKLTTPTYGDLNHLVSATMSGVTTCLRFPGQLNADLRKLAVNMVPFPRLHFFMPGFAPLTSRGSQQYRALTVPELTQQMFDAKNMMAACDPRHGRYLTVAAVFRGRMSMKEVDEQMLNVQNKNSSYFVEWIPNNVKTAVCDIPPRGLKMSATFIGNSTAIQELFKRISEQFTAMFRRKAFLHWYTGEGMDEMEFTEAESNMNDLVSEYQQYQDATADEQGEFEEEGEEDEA

B1: myosin-1B tail (amino acids 717–1111) (domain or fragment, Dictyostelium discoideum, UniProt P34092 717-1111, looked up)
chain: QRAQIAHMFKDKKERQRNSIDRKFTSDYIDFENQFGLQEAMQNAHKKERVVFADTVIKIDRRAKQKNYEMVLTDQALYFVEKSIKKKVLVHTLIRRVGLREIKGVSISTLSDNVIVFHLPEHDQVIENDKKTEIIIVLVEYFKAIGGGSLNVQFSDRINYTLKKGEQKEISFQKSEQCPTLVVKKGGKGLIGTIASGLPSSTDSTPKNYNPNSMSQASSRPAPQQSAGRGRGMPQGAGQPQPQQPQQQQRPMPQPQQGGGARPMPQPQQGGGARPMGAPQQGGAPQQGAGRQLPQPTQQGGAPGGRGAPMGRGAPGGGPAGAGGRPLPTVAKPAPQPSRPTAKALYDYDASSTDELSFKEGDIIFIVQKDNGGWTQGELKSGQKGWAPTNYLQYN
notes: Dictyostelium discoideum myosin-1B, tail, amino acids 717-1111 (NCBI XM_631290.1); Cloned both into pGEX-6P2 (GST only) and pGEX-6P2-eYFP-mcs (GST and YFP); the actin and microtubule assays detect YFP; S3; also called YFP-myosin-1 tail; source: E. coli Rosetta pLys-S, purified (glutathione-Sepharose, size exclusion chromatography); not shown: YFP, C-terminal, kept
Q: B1 was tested. Which Kd (microtubules) did it give?
A: 900 ± 100 nM

Q: What about the Kd (F-actin [1]) of the same binder?
A: 6.8 ± 0.2 µM

B2: myosin-1D tail-TH1 construct (aa 721–913) (domain or fragment, Dictyostelium discoideum, UniProt P34109 721-913, looked up)
chain: MKSNKERRRLSIERPYQGDYINYRENFELKDIVKKNGNEKIMFTHAVNKYDRRSRCQRRVLLLSDTAIYFIATEKNKDKEDRKKRPWIYVQKRRLLLAGITSVELSKLSDGFVVLKTMNEHDQIFECRRKTEFLGTLIKAYKTGTLRINYNNSIGVAIKASKQGGKGKERIILFEKGIKPGESVFKGTKVSTP
notes: Dictyostelium discoideum myosin-1D, TH1 domain only, aa 721-913; The methods describe cloning into pGEX-6P2 (GST only); the results call the construct YFP-tagged and the co-sedimentation detects YFP; S3; also called Myosin-1D-TH1; isolated TH1 domain; source: E. coli Rosetta pLys-S, purified (glutathione-Sepharose, size exclusion chromatography)
Q: With B2 as the binder, how does the Kd (microtubules) read?
A: 3300 ± 200 nM

B3: myosin-1C tail (domain or fragment)
chain: RYWHDMASRIKNAYRNYKAFQFECSNRIKNAFRNYKLYRQRCAQTIQGYFRAWKQASPFFDLRMQNEQLFQGRKERNRFSMISVRKYFGDYLDVRSQSYFLDAMAEGRNEDVIFSSKSQVMVHPILSANKLSPRFLIVTKQAIYLIKLKQKKNLATYLLDRRVPLAEVTSFSLSSLADNLLVIHTSTQFDVAVTTEFKTELVALINKQKGTTLAVNFGQSIQYFKKKGSNNTVTFLKDEMHKEIFLKKNQFHIASGLPASTTVAKVRKNPSQVSTPSKPIAKPVAKPMVAKPSGGSVIMKKPAPAAPPSGPPVMKKPAPTAPGGAPMMKKPAPAPGGAPMMKKPAPVPGGPAPGGSAIMKPAGGVSKPLPSPTGAPMMKKPAPTAPGGPAPAGAPTPMMKKPAGQPMMKPIAKPQPTPMKKPAAPPPQQYIALYEYDAMQPDELTFKENDVINLIKKVDADWWQGELVRTKQIGMLPSNYVQQI
notes: Dictyostelium discoideum myosin-1C, tail; S3; also called YFP-myosin-1 tail; source: E. coli Rosetta pLys-S, purified (glutathione-Sepharose, size exclusion chromatography)
Q: How did the Kd (F-actin [2]) turn out when B3 was run?
A: 900 ± 400 nM

Q: What about the Kd (F-actin [1]) of the same binder?
A: 0.8 ± 0.08 µM
